Test results from publication doi:10.1101/2025.01.26.634877 (bioRxiv, 2025).

Biological target: the molecule itself
Experiment: light scattering

B1: Recombinant mouse neurofilament light chain protein, wild type (NfL-WT) (natural protein, UniProt P08551 1-543, looked up)
chain: MSSFGYDPYFSTSYKRRYVETPRVHISSVRSGYSTARSAYSSYSAPVSSSLSVRRSYSSSSGSLMPSLENLDLSQVAAISNDLKSIRTQEKAQLQDLNDRFASFIERVHELEQQNKVLEAELLVLRQKHSEPSRFRALYEQEIRDLRLAAEDATNEKQALQGEREGLEETLRNLQARYEEEVLSREDAEGRLMEARKGADEAALARAELEKRIDSLMDEIAFLKKVHEEEIAELQAQIQYAQISVEMDVSSKPDLSAALKDIRAQYEKLAAKNMQNAEEWFKSRFTVLTESAAKNTDAVRAAKDEVSESRRLLKAKTLEIEACRGMNEALEKQLQELEDKQNADISAMQDTINKLENELRSTKSEMARYLKEYQDLLNVKMALDIEIAAYRKLLEGEETRLSFTSVGSITSGYSQSSQVFGRSAYSGLQSSSYLMSARSFPAYYTSHVQEEQTEVEETIEATKAEEAKDEPPSEGEAEEEEKEKEEGEEEEGAEEEEAAKDESEDTKEEEEGGEGEEEDTKESEEEEKKEESAGEEQVAKKKD
modifications: native post-translational phosphorylation (varying levels, sites not given); N-terminal carbamoylation observed from the urea conditions
binding result: binds
